Here are results for eight substances from paper PMC5805342.

In this assay the target is Plasminogen (human).
Consider Full-length muPA S74A (enzyme), for which the KM for plasminogen activation (indirect chromogenic assay with S-2251; plasminogen 24-0 μM, 1 nM muPA, 37°C) worked out at 22 µM.
For the substance Full-length muPA K72A (enzyme), the KM for plasminogen activation (indirect chromogenic assay with S-2251; plasminogen 24-0 μM, 1 nM muPA, 37°C) came to 3.1 µM.
Same read-out and setting: for Full-length muPA E73A (enzyme) the value was 24.6 µM; for Full-length muPA P78A (enzyme), 3.9 µM.
On to Full-length muPA Y149A (enzyme), for which the KM for plasminogen activation (indirect chromogenic assay with S-2251; plasminogen 24-0 μM, 1 nM muPA, 37°C) is 12 µM and the kcat for plasminogen activation (indirect chromogenic assay with S-2251; plasminogen 24-0 μM, 1 nM muPA, 37°C) was 0.06 s⁻¹.
Take Full-length muPA Y76A (enzyme): the KM for plasminogen activation (indirect chromogenic assay with S-2251; plasminogen 24-0 μM, 1 nM muPA, 37°C) was 5 µM.
The same measure, in the same setting: in the case of Full-length muPA N77A (enzyme) it was 5.1 µM; in that of “Full-length murine urokinase-type plasminogen activator (muPA) (from UniProt P06869 21-433) (enzyme)”, 9.8 µM.
